Measured values published in patent CN113817056A (CHONGQING PREC BIOTECH CO LTD; CHONGQING JINGZHUN BIO …, dated 2021).

Assays:
[1] = biological target: T1, hCD70-hFc (human, UniProt P32970 39-193, limits assumed); experiment: BLI, scFv on HIS1K sensor, hCD70-hFc analyte; row for 25 nM (same fit value in all rows)
T1 construct: the order here follows the printed name; not shown: human immunoglobulin Fc (hFc)
T1 sequence (looked up): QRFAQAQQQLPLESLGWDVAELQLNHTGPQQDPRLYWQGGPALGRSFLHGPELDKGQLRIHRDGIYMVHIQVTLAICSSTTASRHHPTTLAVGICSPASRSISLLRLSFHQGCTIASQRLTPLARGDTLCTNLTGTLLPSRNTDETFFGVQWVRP

[2] = biological target: T1, hCD70-hFc; experiment: BLI, scFv on HIS1K sensor, hCD70-hFc analyte; row for 50 nM (same fit value in all rows)
[3] = biological target: T1, hCD70-hFc; experiment: BLI, scFv on HIS1K sensor, hCD70-hFc analyte; row for 100 nM (same fit value in all rows)
[4] = biological target: T1, hCD70-hFc; experiment: BLI, scFv on HIS1K sensor, hCD70-hFc analyte; row for 12.5 nM (same fit value in all rows)

B1: 靶向CD70 ScFv (scFv, V domains shown)
VH: EVQLVQSGPEVKKPGASVKVSCKASGYTFTDYYMNWVRQMHGKGLEWMGVINPYNGGTDYNQKFKGRVTITADKSTSTAYMELSSLRSEDTAVYYCARSVYDYPFDYWGQGTLVTVSS
VL: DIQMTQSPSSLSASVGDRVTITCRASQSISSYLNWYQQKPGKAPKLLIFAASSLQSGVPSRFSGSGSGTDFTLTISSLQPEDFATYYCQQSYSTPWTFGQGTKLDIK
0.0016 s⁻¹: koff [1] | koff [2] | koff [3] | koff [4]
21.4 nM: Kd [1] | Kd [2] | Kd [3] | Kd [4]
74000 M⁻¹ s⁻¹: kon [1] | kon [2] | kon [3] | kon [4]
